{
  "source": "paper PMC6527236",
  "key": {"[1]": {"test_system": "φ29 SSB Y50A (Bacillus subtilis phage φ29)", "test": "EMSA", "settings": "60 μM SSB, 10 mM Mg2+, EMSA: 12 mM Tris-HCl pH 7.5, 10 mM MgCl2, 1 mM DTT, 4% glycerol, 0.1 mg/ml BSA, 3 nM DNA, 15 min, 4 °C, unwinding: 50 mM Tris-HCl pH 7.5, 4% glycerol"}, "[2]": {"test_system": "φ29 SSB Y57A (Bacillus subtilis phage φ29)", "test": "EMSA", "settings": "60 μM SSB, 10 mM Mg2+, more retarded band at the highest concentration only, EMSA: 12 mM Tris-HCl pH 7.5, 10 mM MgCl2, 1 mM DTT, 4% glycerol, 0.1 mg/ml BSA, 3 nM DNA, 15 min, 4 °C, unwinding: 50 mM Tris-HCl pH 7.5, 4% glycerol"}, "[3]": {"test_system": "φ29 SSB Y50A (Bacillus subtilis phage φ29)", "test": "unwinding (oligonucleotide displacement gel)", "settings": "80 μM SSB, no Mg2+ listed, helix destabilization, indirect binding read-out, EMSA: 12 mM Tris-HCl pH 7.5, 10 mM MgCl2, 1 mM DTT, 4% glycerol, 0.1 mg/ml BSA, 3 nM DNA, 15 min, 4 °C, unwinding: 50 mM Tris-HCl pH 7.5, 4% glycerol"}, "[4]": {"test_system": "φ29 SSB Y57A (Bacillus subtilis phage φ29)", "test": "unwinding (oligonucleotide displacement gel)", "settings": "80 μM SSB, no Mg2+ listed, helix destabilization, indirect binding read-out, EMSA: 12 mM Tris-HCl pH 7.5, 10 mM MgCl2, 1 mM DTT, 4% glycerol, 0.1 mg/ml BSA, 3 nM DNA, 15 min, 4 °C, unwinding: 50 mM Tris-HCl pH 7.5, 4% glycerol"}},
  "data": [
    {"substance": "216mer yshC fragment, heat denatured", "values": [
      {"measurement": "binding signal (% of wild-type binding)", "setting": "[1]", "result": 96},
      {"measurement": "binding signal (% of wild-type binding)", "setting": "[2]", "result": 17}
    ]},
    {"substance": "M13mp18 ssDNA annealed to 17mer", "values": [
      {"measurement": "binding signal (% of wild-type 17mer displacement)", "setting": "[3]", "result": 97},
      {"measurement": "binding signal (% of wild-type 17mer displacement)", "setting": "[4]", "result": 17}
    ]}
  ]
}
